Patent US20180318386A1, “PEPTIDES AND METHODS OF TREATING ENDOMETRIOSIS USING THE SAME” (BIOINCEPT, LLC, priority 2014, published 2018)

How the values were obtained:
Test in all cases: PIF affinity resin pull-down, CD14+ cell lysate, LC-MS/MS count
[1] = target: Filamin-A (human) (UniProt P21333)
[2] = target: Thymosin alpha-1 (human) (UniProt P06454)
[3] = target: Vimentin (human) (UniProt P08670)
[4] = target: Histone-binding protein RBBP7 (human) (UniProt Q16576)
[5] = target: Isoform 2 of Heat shock protein HSP 90-alpha (human) (UniProt P07900)
[6] = target: Endoplasmin (human) (UniProt P14625)
[7] = target: Histone H4 (human) (UniProt P62805)
[8] = target: Tropomodulin-3 (human) (UniProt Q9NYL9)
[9] = target: Actin, cytoplasmic 2 (human) (UniProt P63261)
[10] = target: 14-3-3 protein theta (human) (UniProt P27348)
[11] = target: Isoform SV of 14-3-3 protein epsilon (human) (UniProt P62258)
[12] = target: Calmodulin (human) (UniProt P0DP23)
[13] = target: Bridging integrator 2 (human) (UniProt Q9UBW5)
[14] = target: Thrombospondin-1 (human) (UniProt P07996)
[15] = target: Talin-1 (human) (UniProt Q9Y490)
[16] = target: Hornerin (human) (UniProt Q86YZ3)

Sequence of Endoplasmin (human) (P14625 22-803 limits assumed): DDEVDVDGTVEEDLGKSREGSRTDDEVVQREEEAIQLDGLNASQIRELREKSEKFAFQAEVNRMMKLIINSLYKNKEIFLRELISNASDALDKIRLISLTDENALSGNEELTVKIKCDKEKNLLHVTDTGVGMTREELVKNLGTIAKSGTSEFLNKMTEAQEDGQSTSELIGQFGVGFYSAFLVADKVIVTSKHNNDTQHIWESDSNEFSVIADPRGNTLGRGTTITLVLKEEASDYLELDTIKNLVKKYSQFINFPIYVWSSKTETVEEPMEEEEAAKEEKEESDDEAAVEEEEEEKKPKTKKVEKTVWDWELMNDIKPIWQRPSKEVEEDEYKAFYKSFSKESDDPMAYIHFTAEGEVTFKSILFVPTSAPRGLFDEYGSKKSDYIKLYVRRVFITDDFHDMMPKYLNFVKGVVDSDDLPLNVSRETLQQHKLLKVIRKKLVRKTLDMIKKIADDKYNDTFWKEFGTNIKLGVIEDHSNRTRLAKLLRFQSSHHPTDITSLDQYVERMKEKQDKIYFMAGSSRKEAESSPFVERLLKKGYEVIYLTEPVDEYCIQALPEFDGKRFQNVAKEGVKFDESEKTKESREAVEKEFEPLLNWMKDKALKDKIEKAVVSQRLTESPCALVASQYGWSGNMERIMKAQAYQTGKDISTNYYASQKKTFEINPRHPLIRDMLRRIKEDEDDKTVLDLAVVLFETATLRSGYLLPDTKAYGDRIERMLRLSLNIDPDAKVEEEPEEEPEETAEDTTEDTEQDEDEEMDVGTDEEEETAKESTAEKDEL
Sequence of Filamin-A (human) (P21333 2-2647 limits assumed): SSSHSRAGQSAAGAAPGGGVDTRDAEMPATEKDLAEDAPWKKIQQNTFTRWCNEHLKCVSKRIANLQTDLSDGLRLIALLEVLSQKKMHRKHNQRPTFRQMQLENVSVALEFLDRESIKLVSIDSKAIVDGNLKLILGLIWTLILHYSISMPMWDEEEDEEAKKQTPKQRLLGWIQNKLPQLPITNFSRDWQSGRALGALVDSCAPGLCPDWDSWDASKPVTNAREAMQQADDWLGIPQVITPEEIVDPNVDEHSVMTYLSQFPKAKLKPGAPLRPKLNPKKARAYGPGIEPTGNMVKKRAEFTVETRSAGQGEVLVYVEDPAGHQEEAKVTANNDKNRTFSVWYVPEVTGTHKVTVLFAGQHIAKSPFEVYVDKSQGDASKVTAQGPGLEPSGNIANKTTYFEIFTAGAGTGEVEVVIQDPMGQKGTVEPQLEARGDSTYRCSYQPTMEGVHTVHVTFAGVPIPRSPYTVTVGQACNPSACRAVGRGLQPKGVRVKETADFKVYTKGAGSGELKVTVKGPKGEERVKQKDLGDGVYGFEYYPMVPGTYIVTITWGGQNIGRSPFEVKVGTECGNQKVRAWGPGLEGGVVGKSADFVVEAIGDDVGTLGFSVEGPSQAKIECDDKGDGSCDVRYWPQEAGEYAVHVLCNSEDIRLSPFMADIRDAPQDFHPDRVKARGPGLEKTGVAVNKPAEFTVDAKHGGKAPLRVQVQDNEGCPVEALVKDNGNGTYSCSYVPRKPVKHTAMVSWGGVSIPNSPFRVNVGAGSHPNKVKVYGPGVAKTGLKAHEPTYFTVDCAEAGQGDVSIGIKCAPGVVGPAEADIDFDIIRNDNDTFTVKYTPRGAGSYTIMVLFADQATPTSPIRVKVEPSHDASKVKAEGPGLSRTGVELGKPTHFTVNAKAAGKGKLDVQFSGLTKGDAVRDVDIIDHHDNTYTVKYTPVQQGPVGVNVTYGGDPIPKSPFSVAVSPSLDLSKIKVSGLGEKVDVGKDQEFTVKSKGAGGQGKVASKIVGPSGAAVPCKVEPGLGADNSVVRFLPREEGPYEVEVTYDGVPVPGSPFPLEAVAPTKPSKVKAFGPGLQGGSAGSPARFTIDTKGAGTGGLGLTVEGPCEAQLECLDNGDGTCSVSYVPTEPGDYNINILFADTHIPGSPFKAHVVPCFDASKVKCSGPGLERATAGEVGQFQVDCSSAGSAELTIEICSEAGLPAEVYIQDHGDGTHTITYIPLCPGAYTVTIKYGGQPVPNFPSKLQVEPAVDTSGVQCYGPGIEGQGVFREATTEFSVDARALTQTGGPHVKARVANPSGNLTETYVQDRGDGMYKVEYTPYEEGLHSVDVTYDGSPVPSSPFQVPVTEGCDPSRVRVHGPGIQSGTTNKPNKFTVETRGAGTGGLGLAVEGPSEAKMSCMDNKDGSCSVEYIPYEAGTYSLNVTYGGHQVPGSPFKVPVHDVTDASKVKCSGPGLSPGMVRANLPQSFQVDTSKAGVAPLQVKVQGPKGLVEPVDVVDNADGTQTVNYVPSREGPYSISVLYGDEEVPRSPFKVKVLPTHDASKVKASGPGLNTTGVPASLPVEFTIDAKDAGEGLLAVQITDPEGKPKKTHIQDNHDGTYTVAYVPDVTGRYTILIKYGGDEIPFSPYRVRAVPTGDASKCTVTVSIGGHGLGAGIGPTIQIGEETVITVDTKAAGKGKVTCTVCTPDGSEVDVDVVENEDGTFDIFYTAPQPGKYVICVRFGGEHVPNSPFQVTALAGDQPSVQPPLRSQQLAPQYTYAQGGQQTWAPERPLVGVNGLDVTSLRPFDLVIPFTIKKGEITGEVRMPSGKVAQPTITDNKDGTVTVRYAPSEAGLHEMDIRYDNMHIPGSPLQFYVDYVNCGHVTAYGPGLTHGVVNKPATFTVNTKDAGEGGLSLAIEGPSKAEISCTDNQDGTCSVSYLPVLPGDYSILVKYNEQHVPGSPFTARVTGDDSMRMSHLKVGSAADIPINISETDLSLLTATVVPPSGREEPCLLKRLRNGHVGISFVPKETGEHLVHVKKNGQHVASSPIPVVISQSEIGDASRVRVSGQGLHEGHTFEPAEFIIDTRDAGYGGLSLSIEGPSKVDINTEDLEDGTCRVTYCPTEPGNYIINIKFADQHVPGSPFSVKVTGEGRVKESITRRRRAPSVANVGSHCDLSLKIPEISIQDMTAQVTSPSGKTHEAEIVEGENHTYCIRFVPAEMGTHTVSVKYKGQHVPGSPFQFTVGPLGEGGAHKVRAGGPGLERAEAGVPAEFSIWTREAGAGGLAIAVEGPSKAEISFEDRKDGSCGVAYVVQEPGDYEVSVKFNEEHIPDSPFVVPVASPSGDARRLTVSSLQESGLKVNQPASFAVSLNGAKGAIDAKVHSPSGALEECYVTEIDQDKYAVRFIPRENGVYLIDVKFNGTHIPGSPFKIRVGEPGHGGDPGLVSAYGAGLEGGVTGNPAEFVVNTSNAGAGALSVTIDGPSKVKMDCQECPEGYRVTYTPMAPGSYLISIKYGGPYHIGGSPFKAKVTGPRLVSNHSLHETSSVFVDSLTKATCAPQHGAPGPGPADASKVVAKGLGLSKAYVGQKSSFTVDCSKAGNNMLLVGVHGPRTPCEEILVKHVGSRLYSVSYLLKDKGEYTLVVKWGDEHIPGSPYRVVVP
Sequence of Isoform SV of 14-3-3 protein epsilon (human) (P62258 23-255 limits assumed): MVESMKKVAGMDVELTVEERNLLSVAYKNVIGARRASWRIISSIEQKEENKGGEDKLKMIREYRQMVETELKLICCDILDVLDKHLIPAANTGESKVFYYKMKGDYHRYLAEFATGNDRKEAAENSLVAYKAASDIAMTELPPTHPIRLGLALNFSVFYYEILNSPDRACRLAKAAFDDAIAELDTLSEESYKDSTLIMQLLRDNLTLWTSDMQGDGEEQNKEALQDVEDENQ
Sequence of Thrombospondin-1 (human) (P07996 19-1170 limits assumed): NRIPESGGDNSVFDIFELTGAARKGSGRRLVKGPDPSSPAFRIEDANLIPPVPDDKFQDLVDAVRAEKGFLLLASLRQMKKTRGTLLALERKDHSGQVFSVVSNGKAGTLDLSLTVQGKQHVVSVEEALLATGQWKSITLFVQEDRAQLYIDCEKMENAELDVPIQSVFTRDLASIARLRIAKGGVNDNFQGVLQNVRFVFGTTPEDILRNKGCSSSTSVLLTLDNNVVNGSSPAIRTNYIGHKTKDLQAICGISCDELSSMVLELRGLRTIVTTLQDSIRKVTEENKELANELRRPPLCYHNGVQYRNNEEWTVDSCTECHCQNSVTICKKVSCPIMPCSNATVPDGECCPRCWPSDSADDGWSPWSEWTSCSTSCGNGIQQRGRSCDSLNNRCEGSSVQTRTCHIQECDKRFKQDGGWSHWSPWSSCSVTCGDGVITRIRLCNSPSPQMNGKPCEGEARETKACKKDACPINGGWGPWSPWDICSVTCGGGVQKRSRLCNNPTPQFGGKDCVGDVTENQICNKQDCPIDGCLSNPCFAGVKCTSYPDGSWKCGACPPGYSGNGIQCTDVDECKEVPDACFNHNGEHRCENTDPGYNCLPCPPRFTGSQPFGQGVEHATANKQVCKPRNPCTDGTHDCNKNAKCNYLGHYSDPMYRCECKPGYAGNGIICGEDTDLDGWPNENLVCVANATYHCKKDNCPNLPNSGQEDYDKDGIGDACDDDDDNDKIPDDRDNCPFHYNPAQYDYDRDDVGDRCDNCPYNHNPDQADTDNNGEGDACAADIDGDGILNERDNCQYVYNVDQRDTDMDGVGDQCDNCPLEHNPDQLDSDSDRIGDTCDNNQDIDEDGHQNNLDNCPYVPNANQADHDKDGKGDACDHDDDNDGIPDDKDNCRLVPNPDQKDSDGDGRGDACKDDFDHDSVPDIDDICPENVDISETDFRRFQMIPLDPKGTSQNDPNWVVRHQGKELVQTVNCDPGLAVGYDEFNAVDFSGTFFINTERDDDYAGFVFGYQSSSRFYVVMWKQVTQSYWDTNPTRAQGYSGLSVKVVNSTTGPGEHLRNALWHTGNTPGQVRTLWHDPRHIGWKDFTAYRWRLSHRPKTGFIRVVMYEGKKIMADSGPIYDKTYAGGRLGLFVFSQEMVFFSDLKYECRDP
Sequence of 14-3-3 protein theta (human) (P27348 whole entry, canonical isoform): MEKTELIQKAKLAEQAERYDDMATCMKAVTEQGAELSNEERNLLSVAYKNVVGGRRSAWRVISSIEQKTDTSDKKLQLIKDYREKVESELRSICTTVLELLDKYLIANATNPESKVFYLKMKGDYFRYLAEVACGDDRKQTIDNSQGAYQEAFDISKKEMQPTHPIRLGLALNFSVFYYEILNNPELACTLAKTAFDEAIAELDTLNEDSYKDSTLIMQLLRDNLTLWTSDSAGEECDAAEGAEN

## PIF15 affinity resin (Cys-C6 spacer-PIF15 conjugated to agarose) (peptide)
[1]
  Ave: 5
  Inject 1: 5
  Inject 2: 3
  Inject 3: 7
[2]
  Ave: 5
  Inject 1: 5
  Inject 2: 5
  Inject 3: 4
[3]
  Ave: 10
  Inject 1: 9
  Inject 2: 11
  Inject 3: 9
[4]
  Ave: 1
  Inject 1: 2
  Inject 2: 0
  Inject 3: 1
[5]
  Ave: 1
  Inject 1: 1
  Inject 2: 2
  Inject 3: 1
[6]
  Ave: 1
  Inject 1: 0
  Inject 2: 2
  Inject 3: 1
[7]
  Ave: 2
  Inject 1: 3
  Inject 2: 0
  Inject 3: 2
[8]
  Ave: 1
  Inject 1: 1
  Inject 2: 2
  Inject 3: 1
[9]
  Ave: 7
  Inject 1: 6
  Inject 2: 7
  Inject 3: 7
[10]
  Ave: 1
  Inject 1: 1
  Inject 2: 1
  Inject 3: 2
[11]
  Ave: 3
  Inject 1: 4
  Inject 2: 4
  Inject 3: 2
[12]
  Ave: 4
  Inject 1: 6
  Inject 2: 4
  Inject 3: 3
[13]
  Ave: 1
  Inject 1: 1
  Inject 2: 2
  Inject 3: 0
[14]
  Ave: 7
  Inject 1: 7
  Inject 2: 5
  Inject 3: 8
[15]
  Ave: 6
  Inject 1: 5
  Inject 2: 6
  Inject 3: 8
[16]
  Ave: 1
  Inject 1: 1
  Inject 2: 0
  Inject 3: 2
